These results are taken from patent US20250171560A1.

T1: C-terminal flag-tagged ACPP transmembrane protein expressed on 293T cells (pcDNA-ACPP-flag)
T1 sequence: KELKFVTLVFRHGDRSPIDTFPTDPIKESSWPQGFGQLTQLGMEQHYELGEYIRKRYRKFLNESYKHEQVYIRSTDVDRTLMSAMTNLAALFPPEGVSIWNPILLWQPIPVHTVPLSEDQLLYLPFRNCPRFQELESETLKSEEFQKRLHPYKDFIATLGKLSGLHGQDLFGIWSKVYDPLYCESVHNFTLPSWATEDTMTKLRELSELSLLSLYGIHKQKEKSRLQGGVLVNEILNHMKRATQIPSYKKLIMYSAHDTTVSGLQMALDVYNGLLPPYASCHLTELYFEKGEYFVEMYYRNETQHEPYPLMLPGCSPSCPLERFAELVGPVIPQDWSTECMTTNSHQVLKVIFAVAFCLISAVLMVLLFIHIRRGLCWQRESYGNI

B1: ACPP antibody S9F5 (human full antibody) (antibody, V domains shown)
VH: EVQLVESGGGLVQPGGSLRLSCAASGFTFSNYWMSWVRQAPGKGLEWVAGISASGGNKYYADSVKGRFTISRDNSKNTLYLQMNSLRAEDTAVYYCAKGPIQLKRHKYVLDYWGQGTLVTVSS
VL: SYELTQPPSVSVAPGQTARITCGGDALPNNSVRWYQQKPGQAPVLVIYGNSERPSGIPERFSGSNSGNTATLTISGTQAEDEADYYCQVSDKSTKYSVFGGGTKLTVL
B2: ACPP antibody S12D9 (human full antibody) (antibody, V domains shown)
VH: EVQLVQSGAEVRKPGSSVKVSCKASGDNFNNYGITWVRQAPGQGLEWMGRLITVLGLDNYAQKFQGRLTITADESTGTAYMELTGLEPEDTAVYYCARDIMSPEAIDAFDVWGQGTLVTVSS
VL: QPVLTQDPVVSVALGQTVRITCQGDSLRSYYATWYQQKPGLAPVRVIFGKNSRPSGIPDRFSGSSSGNTASLTITGAQAEDEADYYCNSWDNSANHPVFGGGTKLTVL
B3: ACPP antibody S10E12 (human full antibody) (antibody, V domains shown)
VH: B2 VH
VL: DIQMTQSPSSLSASVGDRVTITCRASQDVSNYLNWYQQKPGKAPKLLIYGASNRQTGVPSRFSGSGSGTDFTLTISSLQPEDFATYYCQQEDRFPTTFGQGTKVEIK
B4: ACPP antibody S12D4 (human full antibody) (antibody, V domains shown)
VH: QMQLVQSGAEVRRPGSSVKVSCKTSGGTLNNYDINWVRQAPGQGLEWMGWMNPTSGQADFAQKFQGRVSMTRDTSINTAFMELNTLRSEDTAVYYCVRRGGKYWGQGTLVTVSS
VL: QPVLTQDPAVSVALGQTVRITCQGDSLRKYYASWYQQKPGQAPRLVMYDENDRPSGIPDRFSGSSSGNTASLTITGAQADDEADYYCNSRDSSGHHVVFGGGTKVTVL
B5: ACPP antibody S4C7 (human full antibody) (antibody, V domains shown)
VH: QMLVQSGAEVKRPGSSVTVSCETSGDTFSRYAISWLRQAPGQGLEWLGWISGNSGRADYAQNFQGRVTMTTDRSTSTAYLNLRSLRSDDTAVYYCARDAPMLFGVRGGGYYFGMDVWGQGTTVTVSS
VL: EIVLTQSASSLSASVGDRVTITCRTSQNIYRYLNWYQQKPGKAPKLLIFGASTLQTGVPSRFSGSGSGTDFTLTITGLQPEDLATYYCQHSFKLPFTFGQGTRLEIK

This assay concerns the target T1, C-terminal flag-tagged ACPP transmembrane protein expressed on 293T cells (pcDNA-ACPP-flag). Nature of the assay: flow cytometry on 293T cells transfected with pcDNA-ACPP-flag, surface staining without permeabilisation, goat anti human-FITC secondary antibody. For orientation: A flow cytometer gives signals particle by particle.
B1 came in with a % of cells in the positive gate V1R of 0.15%.

On to B2, for which the % of cells in the positive gate V1R was 0.01%.

As to B3, the % of cells in the positive gate V1R stood at 0.18%.

As for B4, the % of cells in the positive gate V1R was 0.06%.

The molecule B5 showed a % of cells in the positive gate V1R of 0.1%.
